We go through one molecule from article PMC10532153, “Interactions of the N- and C-Terminal SH3 Domains of Drosophila Drk with the Proline-Rich Peptides from Sos and Dos” (International Journal of Molecular Sciences, 2023).

Assay [1] has as its target T1, N-terminal SH3 domain of Drosophila Drk (Drk-NSH3) (Drosophila, UniProt Q08012 1-59).
T1 construct: Downstream receptor kinase (Drk), Drosophila homologue of GRB2, 211 residues; N-terminal SH3 domain, residues 1-59; Isolated domain is in equilibrium between a folded and an unfolded state; source: E. coli BL21 (DE3) star, pET-3a, uniformly 15N-labelled, purified (DEAE sepharose, Superdex 75, Resource Q)
Nature of the assay: NMR titration; 2D 1H-15N HSQC of 15N-labelled Drk-NSH3 (0.3 mM), peptide added stepwise up to protein:peptide 1:8; 20 mM KH2PO4/K2HPO4 pH 7.4, 100 mM KCl, 1 mM DTT, 0.05% NaN3, 10% D2O; 25 °C; CSPs fitted to a conformational selection model (Kd and Kf), bootstrap 1000 iterations. The settings on record: both partners purified.

The target of assay [2] is T2, C-terminal SH3 domain of Drosophila Drk (Drk-CSH3) (Drosophila, UniProt Q08012 153-211).
T2 construct: Downstream receptor kinase (Drk), Drosophila homologue of GRB2, 211 residues; C-terminal SH3 domain; the solution structure PDB 7Y4N is of this domain
T2 sequence (Q08012 153-211): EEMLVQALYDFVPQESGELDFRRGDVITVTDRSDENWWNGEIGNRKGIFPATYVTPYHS
The assay can be described thus: NMR titration; 2D 1H-15N HSQC of 15N-labelled Drk-CSH3 (0.3 mM), peptide added stepwise up to protein:peptide 1:8; NMR buffer (20 mM KH2PO4/K2HPO4 pH 7.4, 100 mM KCl, 1 mM DTT, 0.05% NaN3); 25 °C; CSPs fitted to a single-binding model, bootstrap 1000 iterations. The settings on record: both partners purified.

T1 sequence (Q08012 1-59): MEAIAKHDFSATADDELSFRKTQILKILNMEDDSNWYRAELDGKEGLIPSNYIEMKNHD

B1: Dos-S2 peptide (Daughter of Sevenless residues 690-702) (peptide)
peptide: GPPSVDRKCKPNA
notes: Daughter of Sevenless (Dos), Drosophila, proline-rich motif PxxxRxxKP in the C-terminal unstructured region, residues 690-702; Thirteen residues; the nine-residue peptide of the earlier study extended by two residues at each end; also called "longer" Dos-S2; source: synthetic peptide, bought: Eurofins Genomics
With B1, the Kd came to 242 ± 11.6 µM in assay [1] and 250 ± 21.5 µM in assay [2].
